Laboratory results reported in US20090155843A1 (ANAPHORE, published 2009).
Where a chain is given by its changes, count along the chain named.

Biological target: T1, human tumor necrosis factor (TNF) (human, UniProt P01375 77-233)
T1 construct: The assays use 'human TNF'; The target of the phage display selection is printed only as 'TNF'; also called TNF-alpha
Assay: phage display selection and maturation

T1 sequence (P01375 77-233 limits assumed): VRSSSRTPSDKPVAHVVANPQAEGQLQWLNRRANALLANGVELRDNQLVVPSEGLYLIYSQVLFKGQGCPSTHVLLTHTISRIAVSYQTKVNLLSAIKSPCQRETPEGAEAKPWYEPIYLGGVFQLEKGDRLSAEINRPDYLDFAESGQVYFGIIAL

B1: TN3-2-B1-c22-11 (designed binder)
chain: ALQTVCLKGTKVHMKCFLAFTQTKTFHEASEDCISRGGTLSTPQTGSENDALYEYLRQSVGNEAEIWLGLNKRWSRYFWVDMTGTRIAYKNWERPEDAQPDPSNWENCAVLSGAANGKWFGKRCRDQLPYICQFGIV
notes: Monomeric tetranectin CTLD clone
B1: binds.

B2: TN3-2-B1-C1 (designed binder)
chain: B1 chain with R94L, P95L, E96S, S103V
notes: as for B1
B2: binds.

B3: TN3-2-B1-C19 (designed binder)
chain: B1 chain with R94L, P95I, E96R, S103A
notes: as for B1
B3: binds.

B4: TN3-2-B1-C20 (designed binder)
chain: B1 chain with P95R, E96Q
notes: as for B1
B4: binds.

B5: TN3-2-B1-C22 (designed binder)
chain: B1 chain with R94L, E96Q, D97H
notes: Monomeric tetranectin CTLD clone; also called monomeric form of TN2B1C22
B5: binds.

B6: TN3-2-B1-C22-7 (designed binder)
chain: B1 chain with E93G, P95K
notes: Monomeric tetranectin CTLD clone; also called TN3-B1-C22-7; monomeric form of TN2B1C22-7
B6: binds.

B7: TN3-2-B1-C24 (designed binder)
chain: B1 chain with P95T, E96T
notes: as for B1
B7: binds.

B8: TN3-2-B1-C29 (designed binder)
chain: B1 chain with R94G, P95I, D97W, S103T, W105F
notes: as for B1
B8: binds.

B9: TN3-2-B1-C31 (designed binder)
chain: B1 chain with R94H, P95S, E96S
notes: as for B1
B9: binds.

B10: TN3-2-B1-C53 (designed binder)
chain: B1 chain with P95L, E96A, S103F
notes: as for B1
B10: binds.

B11: TN3-2-B1-c7 (designed binder)
chain: B1 chain with R94L, P95A, E96S, S103A
notes: as for B1
B11: binds.

B12: TN3-2-B1-c22-1 (designed binder)
chain: B1 chain with E93K, R94L, E96Q, D97H, Q99N, D101S
notes: as for B1
B12: binds.

B13: TN3-2-B1-c22-2 (designed binder)
chain: B1 chain with E93L, R94L, E96Q, D97H, Q99N, D101N
notes: as for B1
B13: binds.

B14: TN3-2-B1-c22-3 (designed binder)
chain: B1 chain with E93K, R94L, E96Q, D97H, Q99H, D101E
notes: as for B1
B14: binds.

B15: TN3-2-B1-c22-4 (designed binder)
chain: B1 chain with E93A, R94L, E96Q, D97H, Q99S, D101S
notes: as for B1
B15: binds.

B16: TN3-2-B1-c22-6 (designed binder)
chain: B1 chain with E93M, R94L, P95E, E96K
notes: as for B1
B16: binds.

B17: TN3-2-B1-c22-7 (designed binder)
chain: B1 chain with E93G, P95K
notes: as for B1
B17: binds.

B18: TN3-2-B1-c22-8 (designed binder)
chain: B1 chain with E93A, P95T, E96Q
notes: as for B1
B18: binds.

B19: TN3-2-B1-c22-9 (designed binder)
chain: B1 chain with P95N, E96R
notes: as for B1
B19: binds.

B20: TN3-2-B1-c22-10 (designed binder)
chain: B1 chain with E93V, P95Q, E96R
notes: as for B1
B20: binds.

B21: TN3-2-B1-c22-12 (designed binder)
chain: B1 chain with E93S, P95Q
notes: as for B1
B21: binds.

B22: TN3-2-B1-c22-13 (designed binder)
chain: B1 chain with P95L, E96R, A98S
notes: as for B1
B22: binds.

B23: TN3-2-B1-c22-15 (designed binder)
chain: B1 chain with E93Q, R94L, E96Q, D97H, Q99D, D101A
notes: as for B1
B23: binds.

B24: TN3-2-B1-c22-16 (designed binder)
chain: B1 chain with E93L, R94L, E96Q, D97H, A98E, D101E
notes: as for B1
B24: binds.
